Assay results as given in patent publication US20190048062A1 (BRACCO SUISSE, published 2019).

Tests used:
Test in all cases: flow chamber, microvesicles on selectin-Fc coating
[1] = biological target: T1, mouse Fc P-Selectin (catalog number 737-PS, R&D Systems) (mouse, UniProt Q01102 42-709)
T1 construct: Bought; coated in the flow chamber at 4 µg/mL; also called Mouse P selectin; mouse P-selectin; Fc part of the bought chimera not given
T1 sequence (looked up): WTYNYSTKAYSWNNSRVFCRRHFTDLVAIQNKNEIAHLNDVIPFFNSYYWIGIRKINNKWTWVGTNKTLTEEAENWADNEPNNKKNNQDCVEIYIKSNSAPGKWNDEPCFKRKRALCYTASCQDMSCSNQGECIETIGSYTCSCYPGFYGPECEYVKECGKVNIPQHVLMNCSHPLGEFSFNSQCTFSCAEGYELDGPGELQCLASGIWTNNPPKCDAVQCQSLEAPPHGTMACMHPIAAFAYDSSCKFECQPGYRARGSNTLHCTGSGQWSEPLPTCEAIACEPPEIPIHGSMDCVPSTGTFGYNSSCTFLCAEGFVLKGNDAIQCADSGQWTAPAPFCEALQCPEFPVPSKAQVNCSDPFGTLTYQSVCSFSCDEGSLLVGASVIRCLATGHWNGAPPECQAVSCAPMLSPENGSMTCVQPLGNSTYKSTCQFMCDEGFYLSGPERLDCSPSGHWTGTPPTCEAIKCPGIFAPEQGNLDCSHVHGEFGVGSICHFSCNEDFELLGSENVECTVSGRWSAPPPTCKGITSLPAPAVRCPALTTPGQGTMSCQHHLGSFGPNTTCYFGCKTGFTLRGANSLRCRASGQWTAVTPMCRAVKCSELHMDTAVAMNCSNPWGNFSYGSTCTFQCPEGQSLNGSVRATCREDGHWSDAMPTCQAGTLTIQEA
Experimental: (§1) To test the effective binding, targeted microvesicles prepared as described in WO2012/020030 (Example 6) and those prepared according to the present invention (example 8) were injected in a flow chamber set up comprising a coating of mouse Fc P-Selectin (catalog number 737-PS, R&D Systems, Minneapolis, Minn., USA) or human Fc P and E selectins (R&D catalog numbers 137-PS 50 and 724 ES 100) at 4 μg/mL. Microvesicles (at equivalent number of 80×10⁶/400 μL TBS++) were injected through the flow chamber (FCS2, Bioptech, USA) in a bolus fashion and their adhesion onto the mouse P-selectin (or human P- or E-selectin) coating layer assessed over a period of 10 min at a flow rate of 1.0 mL/min (shear rate of 714 s⁻¹) in the presence of 50% (v:v) human plasma (Stehelin & Cie A G) in TBS. A quantitative analysis of microvesicles accumulation was performed by counting the number of microvesicles adhering in the observed area at 2 min intervals over the total 10 min infusion, using the image processing program Analysis FIVE (SIS, Germany). After 10 min, five pictures were taken randomly and the number of bound microvesicles was measured and expressed as the number of bound bubbles (NBB) at 10 min. Each observed area was 183×137 μm, as measured with the aid of a stage micrometer. Measurement was performed between the middle and the exit of the chamber.
(§2) Similarly, suspensions of targeted microvesicles prepared according to example 8 (Variant 1A as targeting ligand) was injected in a flow chamber as described above, and their binding activity determined according to the above procedure.

[2] = biological target: T2, human Fc E selectin (R&D catalog number 724 ES 100) (human, UniProt P16581 22-556)
T2 construct: Bought; coated in the flow chamber at 4 µg/mL; also called Human E selectin; human E-selectin; Fc part of the bought chimera not given
T2 sequence (looked up): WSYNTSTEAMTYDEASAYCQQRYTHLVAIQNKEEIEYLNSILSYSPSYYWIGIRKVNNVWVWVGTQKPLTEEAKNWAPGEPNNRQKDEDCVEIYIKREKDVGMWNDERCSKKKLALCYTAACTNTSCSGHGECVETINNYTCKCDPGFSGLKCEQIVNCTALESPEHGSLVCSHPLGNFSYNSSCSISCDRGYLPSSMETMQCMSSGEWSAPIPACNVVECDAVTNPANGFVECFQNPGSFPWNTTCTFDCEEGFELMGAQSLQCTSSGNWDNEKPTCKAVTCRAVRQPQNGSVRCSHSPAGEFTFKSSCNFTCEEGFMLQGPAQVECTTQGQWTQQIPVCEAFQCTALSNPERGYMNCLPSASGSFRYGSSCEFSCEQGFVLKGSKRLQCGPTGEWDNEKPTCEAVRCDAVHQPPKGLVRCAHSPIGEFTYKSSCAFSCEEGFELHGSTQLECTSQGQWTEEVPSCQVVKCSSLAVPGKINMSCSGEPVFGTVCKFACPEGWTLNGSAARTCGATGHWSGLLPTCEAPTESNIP
Experimental: as §1, §2

[3] = biological target: T3, human Fc P selectin (R&D catalog number 137-PS 50) (human, UniProt P16109 42-771)
T3 construct: Bought; coated in the flow chamber at 4 µg/mL; also called Human P selectin; human P-selectin; Fc part of the bought chimera not given
T3 sequence (looked up): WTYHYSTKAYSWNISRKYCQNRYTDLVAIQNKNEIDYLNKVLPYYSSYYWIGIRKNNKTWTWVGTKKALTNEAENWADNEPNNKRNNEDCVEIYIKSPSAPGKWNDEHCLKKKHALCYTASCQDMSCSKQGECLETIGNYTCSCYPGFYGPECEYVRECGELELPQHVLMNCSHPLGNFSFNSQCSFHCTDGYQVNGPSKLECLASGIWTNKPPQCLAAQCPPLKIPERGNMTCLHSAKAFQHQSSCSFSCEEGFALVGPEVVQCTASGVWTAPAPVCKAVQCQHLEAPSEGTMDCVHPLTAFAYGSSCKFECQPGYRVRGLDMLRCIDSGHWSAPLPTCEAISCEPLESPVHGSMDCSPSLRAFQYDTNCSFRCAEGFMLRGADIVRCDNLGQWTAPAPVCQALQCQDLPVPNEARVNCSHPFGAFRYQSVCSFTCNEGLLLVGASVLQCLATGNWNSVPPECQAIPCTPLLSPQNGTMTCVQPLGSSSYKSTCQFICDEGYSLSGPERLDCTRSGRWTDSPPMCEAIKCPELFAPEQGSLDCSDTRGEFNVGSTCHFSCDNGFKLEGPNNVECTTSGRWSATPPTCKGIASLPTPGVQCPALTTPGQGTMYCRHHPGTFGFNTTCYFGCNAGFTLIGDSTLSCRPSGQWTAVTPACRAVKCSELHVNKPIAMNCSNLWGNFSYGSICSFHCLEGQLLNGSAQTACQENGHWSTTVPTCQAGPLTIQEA
Experimental: as §1, §2

Measured: binding result

B1: microbubble Variant 1A (gas-filled microvesicles carrying the DSPE-PEG-SH/Variant 1A-SMCC conjugate) (other)
chain: QATEYEYLDYDFLPETEPPEMLRNSTDTTPLTGPGTPESTTVEPAARPHTCPPCPLQQRRGLEAERARLAAQLDALRAEVARLARERDLYGGGGAGGGGKG
modifications: as Variant 1A (pyroglutamate N-terminus, sulfated Tyr 5, 7, 10, O-glycan on Thr16); reacted with Sulfo-SMCC and linked to DSPE-PEG2000-SH, held in the phospholipid envelope of the microvesicle
notes: many copies of the ligand on each microvesicle, so the read-out is multivalent adhesion; also called MB-PSGL-1 Variant 1A; microvesicles with Variant 1A
binds: all assays above
